Measured values published in PMC10042821, “Cryo-EM structure of human eIF5A-DHS complex reveals the molecular basis of hypusination-associated neurodegenerative disorders” (Nature Communications, 2023).

Columns and labels:
[1] = target: the molecule itself; assay: mass photometry; Refeyn OneMP, final concentration ~1-5 nM; oligomeric state of DHS variants
[2] = target: the molecule itself; assay: cryo-EM structure; complex reconstituted from purified eIF5A-1 and DHS K329A (2 mole eIF5A per 1 mole DHS), 200 mM glycine/NaOH pH 9.3, 200 mM NaCl, 1 mM NAD, 1 mM SPD, purified by SEC; 2.8 A

Protein | stoichiometry N [1] | stoichiometry N [2]
deoxyhypusine synthase delY305_I306, patient-derived variant, tag-free (enzyme, human, UniProt P49366 1-369, looked up, deoxyhypusine synthase (DHS), Homo sapiens, UniProt P49366, residues 1-369, pathological variant lacking Y305 and I306; Tag removal follows the general purification procedure; also called DHS^delY305_I306; DHS^del305Y_306I; source: E. coli, purified from the soluble fraction (HisTrap, TEV cleavage, reverse HisTrap, SEC); not shown: His6, N-terminal, cleaved) MEGSLEREAPAGALAAVLKHSSTLPPESTQVRGYDFNRGVNYRALLEAFGTTGFQATNFGRAVQQVNAMIEKKLEPLSQDEDQHADLTQSRRPLTSCTIFLGYTSNLISSGIRETIRYLVQHNMVDVLVTTAGGVEEDLIKCLAPTYLGEFSLRGKELRENGINRIGNLLVPNENYCKFEDWLMPILDQMVMEQNTEGVKWTPSKMIARLGKEINNPESVYYWAQKNHIPVFSPALTDGSLGDMIFFHSYKNPGLVLDIVEDLRLINTQAIFAKCTGMIILGGGVVKHHIANANLMRNGADYAVNTAQEFDGSDSGARPDEAVSWGKIRVDAQPVKVYADASLVFPLLVAETFAQKMDAFMHEKNED | 2 | –
deoxyhypusine synthase K329A, catalytically dead variant, tag-free (enzyme, human, UniProt P49366 1-369, looked up, deoxyhypusine synthase (DHS), Homo sapiens, UniProt P49366, residues 1-369; Tag removal follows the general purification procedure; used for cryo-EM, HDX-MS and crystallography; also called DHS^K329A; source: E. coli, purified (HisTrap, TEV cleavage, reverse HisTrap, SEC); not shown: His6, N-terminal, cleaved) MEGSLEREAPAGALAAVLKHSSTLPPESTQVRGYDFNRGVNYRALLEAFGTTGFQATNFGRAVQQVNAMIEKKLEPLSQDEDQHADLTQSRRPLTSCTIFLGYTSNLISSGIRETIRYLVQHNMVDVLVTTAGGVEEDLIKCLAPTYLGEFSLRGKELRENGINRIGNLLVPNENYCKFEDWLMPILDQMVMEQNTEGVKWTPSKMIARLGKEINNPESVYYWAQKNHIPVFSPALTDGSLGDMIFFHSYKNPGLVLDIVEDLRLINTQAIFAKCTGMIILGGGVVKHHIANANLMRNGADYAVYINTAQEFDGSDSGARPDEAVSWGAIRVDAQPVKVYADASLVFPLLVAETFAQKMDAFMHEKNED | – | 4
deoxyhypusine synthase N173S, patient-derived variant, tag-free (enzyme, human, UniProt P49366 1-369, looked up, deoxyhypusine synthase (DHS), Homo sapiens, UniProt P49366, residues 1-369, pathological variant N173S; Tag removal follows the general purification procedure; also called DHS^N173S; source: E. coli, purified from the soluble fraction (HisTrap, TEV cleavage, reverse HisTrap, SEC); not shown: His6, N-terminal, cleaved) MEGSLEREAPAGALAAVLKHSSTLPPESTQVRGYDFNRGVNYRALLEAFGTTGFQATNFGRAVQQVNAMIEKKLEPLSQDEDQHADLTQSRRPLTSCTIFLGYTSNLISSGIRETIRYLVQHNMVDVLVTTAGGVEEDLIKCLAPTYLGEFSLRGKELRENGINRIGNLLVPSENYCKFEDWLMPILDQMVMEQNTEGVKWTPSKMIARLGKEINNPESVYYWAQKNHIPVFSPALTDGSLGDMIFFHSYKNPGLVLDIVEDLRLINTQAIFAKCTGMIILGGGVVKHHIANANLMRNGADYAVYINTAQEFDGSDSGARPDEAVSWGKIRVDAQPVKVYADASLVFPLLVAETFAQKMDAFMHEKNED | 4 | –
